Results taken from US20180155451A1 (published 2018).

T1: FcγRIIb (human, UniProt P31994 43-217)
T1 construct: extracellular domain; also called FcgRIIb; 2b
T1 sequence (looked up): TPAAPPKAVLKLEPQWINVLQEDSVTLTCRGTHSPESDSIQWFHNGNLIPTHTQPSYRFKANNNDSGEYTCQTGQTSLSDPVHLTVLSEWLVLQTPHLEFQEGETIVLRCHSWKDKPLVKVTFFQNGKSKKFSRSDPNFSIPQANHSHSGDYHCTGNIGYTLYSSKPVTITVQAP

B1: GpH7-A5/GpH7-B3 variant S298_14T/GpL16-k0 (antibody, human IgG1, kappa)
heavy 1: not shown
heavy 2: not shown
light: DIVMTQSPLSLPVTPGEPASISCQASESLVHSNRNTYLHWYLQKPGQSPQLLIYKVSNRFSGVPDRFSGSGSGTDFTLKISRVEAEDVGVYYCSQNTHVPPTFGQGTKVEIERTVAAPSVFIFPPSDEQLKSGTASVVCLLNNFYPREAKVQWKVDNALQSGNSQESVTEQDSKDSTYSLSSTLTLSKADYEKHKVYACEVTHQGLSSPVTKSFNRGEC
notes: heterodimerized IgG1, one H chain mutated; also called He Ab
B2: GpH7-A5/GpH7-B3 variant S298_15Y/GpL16-k0 (antibody, human IgG1, kappa)
heavy 1: not shown
heavy 2: not shown
light: B1 light
notes: as for B1
B3: GpH7-A5/GpH7-B3 variant S298_16H/GpL16-k0 (antibody, human IgG1, kappa)
heavy 1: not shown
heavy 2: not shown
light: B1 light
notes: as for B1
B4: GpH7-A5/GpH7-B3 variant S298_18N/GpL16-k0 (antibody, human IgG1, kappa)
heavy 1: not shown
heavy 2: not shown
light: B1 light
notes: as for B1
B5: GpH7-A5/GpH7-B3 variant S298_19Q/GpL16-k0 (antibody, human IgG1, kappa)
heavy 1: not shown
heavy 2: not shown
light: B1 light
notes: as for B1
B6: GpH7-A5/GpH7-B3 variant S298_20W/GpL16-k0 (antibody, human IgG1, kappa)
heavy 1: not shown
heavy 2: not shown
light: B1 light
notes: as for B1
B7: GpH7-A5/GpH7-B3 variant S324_01G/GpL16-k0 (antibody, human IgG1, kappa)
heavy 1: not shown
heavy 2: not shown
light: B1 light
notes: as for B1
B8: GpH7-A5/GpH7-B3 variant S324_02A/GpL16-k0 (antibody, human IgG1, kappa)
heavy 1: not shown
heavy 2: not shown
light: B1 light
notes: as for B1
B9: GpH7-A5/GpH7-B3 variant S324_09D/GpL16-k0 (antibody, human IgG1, kappa)
heavy 1: not shown
heavy 2: not shown
light: B1 light
notes: as for B1
B10: GpH7-A5/GpH7-B3 variant S324_10E/GpL16-k0 (antibody, human IgG1, kappa)
heavy 1: not shown
heavy 2: not shown
light: B1 light
notes: as for B1
B11: GpH7-A5/GpH7-B3 variant S324_11K/GpL16-k0 (antibody, human IgG1, kappa)
heavy 1: not shown
heavy 2: not shown
light: B1 light
notes: as for B1
B12: GpH7-A5/GpH7-B3 variant S324_12R/GpL16-k0 (antibody, human IgG1, kappa)
heavy 1: not shown
heavy 2: not shown
light: B1 light
notes: as for B1
B13: GpH7-A5/GpH7-B3 variant S324_14T/GpL16-k0 (antibody, human IgG1, kappa)
heavy 1: not shown
heavy 2: not shown
light: B1 light
notes: as for B1
B14: GpH7-A5/GpH7-B3 variant S324_15Y/GpL16-k0 (antibody, human IgG1, kappa)
heavy 1: not shown
heavy 2: not shown
light: B1 light
notes: as for B1
B15: GpH7-A5/GpH7-B3 variant S324_16H/GpL16-k0 (antibody, human IgG1, kappa)
heavy 1: not shown
heavy 2: not shown
light: B1 light
notes: as for B1
B16: GpH7-A5/GpH7-B3 variant S324_18N/GpL16-k0 (antibody, human IgG1, kappa)
heavy 1: not shown
heavy 2: not shown
light: B1 light
notes: as for B1
B17: GpH7-A5/GpH7-B3 variant S324_19Q/GpL16-k0 (antibody, human IgG1, kappa)
heavy 1: not shown
heavy 2: not shown
light: B1 light
notes: as for B1
B18: GpH7-A5/GpH7-B3 variant S324_20W/GpL16-k0 (antibody, human IgG1, kappa)
heavy 1: not shown
heavy 2: not shown
light: B1 light
notes: as for B1
B19: GpH7-A5/GpH7-B3 variant Y300_02A/GpL16-k0 (antibody, human IgG1, kappa)
heavy 1: not shown
heavy 2: not shown
light: B1 light
notes: as for B1
B20: GpH7-A5/GpH7-B3 variant Y300_03V/GpL16-k0 (antibody, human IgG1, kappa)
heavy 1: not shown
heavy 2: not shown
light: B1 light
notes: as for B1
B21: GpH7-A5/GpH7-B3 variant Y300_05P/GpL16-k0 (antibody, human IgG1, kappa)
heavy 1: not shown
heavy 2: not shown
light: B1 light
notes: as for B1
B22: GpH7-A5/GpH7-B3 variant Y300_06M/GpL16-k0 (antibody, human IgG1, kappa)
heavy 1: not shown
heavy 2: not shown
light: B1 light
notes: as for B1
B23: GpH7-A5/GpH7-B3 variant Y300_07I/GpL16-k0 (antibody, human IgG1, kappa)
heavy 1: not shown
heavy 2: not shown
light: B1 light
notes: as for B1
B24: GpH7-A5/GpH7-B3 variant Y300_08L/GpL16-k0 (antibody, human IgG1, kappa)
heavy 1: not shown
heavy 2: not shown
light: B1 light
notes: as for B1
B25: GpH7-A5/GpH7-B3 variant Y300_09D/GpL16-k0 (antibody, human IgG1, kappa)
heavy 1: not shown
heavy 2: not shown
light: B1 light
notes: as for B1
B26: GpH7-A5/GpH7-B3 variant Y300_11K/GpL16-k0 (antibody, human IgG1, kappa)
heavy 1: not shown
heavy 2: not shown
light: B1 light
notes: as for B1
B27: GpH7-A5/GpH7-B3 variant Y300_12R/GpL16-k0 (antibody, human IgG1, kappa)
heavy 1: not shown
heavy 2: not shown
light: B1 light
notes: as for B1
B28: GpH7-A5/GpH7-B3 variant Y300_13S/GpL16-k0 (antibody, human IgG1, kappa)
heavy 1: not shown
heavy 2: not shown
light: B1 light
notes: as for B1
B29: GpH7-A5/GpH7-B3 variant Y300_14T/GpL16-k0 (antibody, human IgG1, kappa)
heavy 1: not shown
heavy 2: not shown
light: B1 light
notes: as for B1
B30: GpH7-A5/GpH7-B3 variant Y300_16H/GpL16-k0 (antibody, human IgG1, kappa)
heavy 1: not shown
heavy 2: not shown
light: B1 light
notes: as for B1
B31: GpH7-A5/GpH7-B3 variant Y300_20W/GpL16-k0 (antibody, human IgG1, kappa)
heavy 1: not shown
heavy 2: not shown
light: B1 light
notes: as for B1

target: T2, FcγRIa (human, UniProt P12314 16-292); test: SPR (Biacore); He/Con_1a (FcgRIa) divided by He/Con_2b (FcgRIIb)
T2 construct: extracellular domain; also called FcgRI; FcgRIa
Protocol: The heterodimerized antibodies He Abs in which one of the H chains was introduced with an alteration were assayed for their binding activities to each activating FcγR and inhibitory FcγR according to the method described in Example 4. […] The activating FcγRs in FIGS. 26, 27, 28, and 29 are FcγRIa, FcγRIIa (R), FcγRIIa (H), and FcγRIIIa, respectively.
Analysis of interaction between objective antibody and the FcγR was carried out using Biacore T100 (GE Healthcare). HBS-EP+ (GE Healthcare) was used as the running buffer, and the measurement temperature was set to 25° C. Chips produced by immobilizing the antigen peptide by the amine coupling method to a Series S Sencor Chip CM5 (GE Healthcare), or alternatively, chips produced by allowing preliminarily biotinylated antigen peptides to interact with and immobilize onto a Series S Sensor Chip SA (certified) (GE Healthcare) were used. Antibodies of interest were captured onto an antigen peptide-immobilized chip, and allowed to interact to each FcγR diluted with running buffer. To regenerate and repeatedly use the chip, the antibodies captured on the chip were washed off by reacting 10 mM glycine-HCl, pH 1.5.

T2 sequence (P12314 16-292): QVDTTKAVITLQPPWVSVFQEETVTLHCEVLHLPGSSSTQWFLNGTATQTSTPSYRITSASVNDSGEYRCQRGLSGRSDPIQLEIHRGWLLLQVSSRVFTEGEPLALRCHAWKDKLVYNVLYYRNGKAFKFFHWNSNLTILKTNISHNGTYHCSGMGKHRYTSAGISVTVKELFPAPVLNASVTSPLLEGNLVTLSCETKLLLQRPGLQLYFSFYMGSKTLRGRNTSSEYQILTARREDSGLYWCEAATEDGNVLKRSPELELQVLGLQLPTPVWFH

Row | Binder | Ia/IIb He_1a/2b
1 | B1 | 1.37
2 | B2 | 1.75
3 | B3 | 1.71
4 | B4 | 2.25
5 | B5 | 1.49
6 | B6 | 2.53
7 | B7 | 1.22
8 | B8 | 1.31
9 | B9 | 1.21
10 | B10 | 1.35
11 | B11 | 1.49
12 | B12 | 1.61
13 | B13 | 1.37
14 | B14 | 1.29
15 | B15 | 1.35
16 | B16 | 1.42

Row | Binder | Ia/IIb He_1a/2b
17 | B17 | 1.68
18 | B18 | 1.31
19 | B19 | 1.62
20 | B20 | 1.58
21 | B21 | 8.22
22 | B22 | 1.33
23 | B23 | 1.45
24 | B24 | 1.54
25 | B25 | 1.21
26 | B26 | 2.07
27 | B27 | 2.54
28 | B28 | 2.06
29 | B29 | 2.01
30 | B30 | 1.27
31 | B31 | 1.34

target: T2, FcγRIa; test: SPR (Biacore), relative to GpH7-A5/GpH7-B3/GpL16-k0 = 100

Row | Binder | He/Con_1a (Ia binding)
32 | B1 | 107 relative (control = 100)
33 | B2 | 107 relative (control = 100)
34 | B3 | 109 relative (control = 100)
35 | B4 | 108 relative (control = 100)
36 | B5 | 109 relative (control = 100)
37 | B6 | 104 relative (control = 100)
38 | B7 | 98.8 relative (control = 100)
39 | B8 | 103 relative (control = 100)
40 | B9 | 104 relative (control = 100)
41 | B10 | 105 relative (control = 100)
42 | B11 | 102 relative (control = 100)
43 | B12 | 102 relative (control = 100)
44 | B13 | 121 relative (control = 100)
45 | B14 | 114 relative (control = 100)
46 | B15 | 113 relative (control = 100)
47 | B16 | 116 relative (control = 100)

Row | Binder | He/Con_1a (Ia binding)
48 | B17 | 112 relative (control = 100)
49 | B18 | 114 relative (control = 100)
50 | B19 | 112 relative (control = 100)
51 | B20 | 117 relative (control = 100)
52 | B21 | 60.2 relative (control = 100)
53 | B22 | 112 relative (control = 100)
54 | B23 | 108 relative (control = 100)
55 | B24 | 113 relative (control = 100)
56 | B25 | 112 relative (control = 100)
57 | B26 | 107 relative (control = 100)
58 | B27 | 105 relative (control = 100)
59 | B28 | 111 relative (control = 100)
60 | B29 | 112 relative (control = 100)
61 | B30 | 111 relative (control = 100)
62 | B31 | 112 relative (control = 100)

target: T1, FcγRIIb; test: as above

Row | Binder | He/Con_2b (IIb binding)
63 | B1 | 77.9 relative (control = 100)
64 | B2 | 61.4 relative (control = 100)
65 | B3 | 63.5 relative (control = 100)
66 | B4 | 48.1 relative (control = 100)
67 | B5 | 73.3 relative (control = 100)
68 | B6 | 41.1 relative (control = 100)
69 | B7 | 81.1 relative (control = 100)
70 | B8 | 78.3 relative (control = 100)
71 | B9 | 85.8 relative (control = 100)
72 | B10 | 77.4 relative (control = 100)
73 | B11 | 68.6 relative (control = 100)
74 | B12 | 63.1 relative (control = 100)
75 | B13 | 88.4 relative (control = 100)
76 | B14 | 88.2 relative (control = 100)
77 | B15 | 83.5 relative (control = 100)
78 | B16 | 81.1 relative (control = 100)

Row | Binder | He/Con_2b (IIb binding)
79 | B17 | 66.8 relative (control = 100)
80 | B18 | 87.5 relative (control = 100)
81 | B19 | 69.2 relative (control = 100)
82 | B20 | 73.9 relative (control = 100)
83 | B21 | 7.3 relative (control = 100)
84 | B22 | 84.3 relative (control = 100)
85 | B23 | 74.5 relative (control = 100)
86 | B24 | 73.6 relative (control = 100)
87 | B25 | 93.2 relative (control = 100)
88 | B26 | 51.6 relative (control = 100)
89 | B27 | 41.2 relative (control = 100)
90 | B28 | 53.9 relative (control = 100)
91 | B29 | 55.6 relative (control = 100)
92 | B30 | 87 relative (control = 100)
93 | B31 | 84.1 relative (control = 100)
